In the supplement of paper PMC9170038:

Tested on: MS2 coat protein
Test: apparent KD of MS2 coat protein; designed switch direction (-1 OFF switch, 1 ON switch): -1; higher = weaker reporter binding
Procedure, shortened: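 The reported apparent KD is a per-design median over clusters, from curve fits of normalised cluster fluorescence. Protein titrations used SNAP-549-labelled MS2 coat protein, doubled from 0.7 or 1.5 nM to 3 µM, in Tris-HCl pH 7.5 buffer with KCl, MgCl2, BSA, DTT, tRNA and Tween-20, with no input, 200 uM small-molecule ligand, or an oligonucleotide input. The RNA switches were transcribed on Illumina chips by stalled E. coli RNA polymerase.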

[1] = Eterna round: R95, input ligand: FMN 200 uM
[2] = Eterna round: R95, input ligand: microRNA oligo, concentration not stated
[3] = Eterna round: R95, input ligand: none
[4] = input ligand: microRNA oligo, concentration not stated

Sequence	apparent KD of MS2 coat protein [1] [nM]	apparent KD of MS2 coat protein [2] [nM]	apparent KD of MS2 coat protein [3] [nM]	apparent KD of MS2 coat protein (input ligand: FMN 200 uM) [nM]	apparent KD of MS2 coat protein (input ligand: none) [nM]	apparent KD of MS2 coat protein [4] [nM]
ACAAGCUUUAGGCGUGUGAACAUGAGGAUCACCCAUGUAUUUUUGGUUAGGAGUUCUGUAAGGGAUGCUCGUCUUAU [JR_SWV3TOV1_Sub091] (puzzle: Sensor v3, turn-off variant 1)	42.2	55.1	48.9	–	–	–
ACAAGCUUUGUUGGGUGGUACAUGAGGAUCACCCAUGUUGCGCUCGUCUUGUGGGCCCGGGCCCGCGGCCCGGGCCC [-41.5, -69.6, A 12%] (Eterna round: R97, puzzle: Sensor, turn-off variant 1)	–	–	–	545	663	–
ACAAGCUUUUAGAUUCUUAACAUGAGGAUCACCCAUGUGCUCGUCUUAUUUUCCGGCGGGCCGCCGGAAAAGCUUGU (Eterna round: R97, puzzle: Sensor, turn-off variant 1)	–	–	–	92.5	93.8	–
ACAAGCUUUUAGAUUUUCAACAUGAGGAUCACCCAUGUUCGUCUUAGGCGAGUGCGAGUGCGGUGUACUCGUAUUAG [JL TOV1 3.85 sellena mod] (Eterna round: R97, puzzle: Sensor, turn-off variant 1)	–	–	–	22.2	21.9	–
ACAAGCUUUUUGUUCGUCUUAUAAUAAUAAAUAAAGAUAACAUGAGGAUCACCCAUGUAAAGAAGACGGCCUCAUGU [Sesor Array 20 - Jieux - Sensor v3, turn-off variant 2] (puzzle: Sensor v3, turn-off variant 2)	785	233	1120	–	–	–
ACAAGCUUUUUGUUCGUCUUAUACACUCCUAAUAAGAAAACAUGAGGAUCACCCAUGUAAGAAAUAAGAACUCAUGU [Sesor Array 1 - Jieux - Sensor v3, turn-off variant 2] (puzzle: Sensor v3, turn-off variant 2)	225	303	213	–	–	–
ACAAGUUUUUAGAUUCUUAACAUGAGGAUCACCCAUGUGCUCGUCUUGUUUGUACUAUCACCGCCGGUGAUAGUACA (Eterna round: R97, puzzle: Sensor, turn-off variant 1)	–	–	–	65	81	–
ACAAUGUCAGGAUAUGAACAGCGCGGUCACAAGGAUUGCUUUCAGAAGGGACAUGAGGAUCACCCAUGUCGAUA [Eternabot (L1) Solution 91] (Eterna round: R97, puzzle: Exclusion 4)	–	–	–	23	20	–
ACAAUGUUAGGAUAUCUGACAACUAGCCUCGGCUAGUCGAAAGAGAAGGAACAUGAGGAUCACCCAUGUAGAUC [EX4 #71] (Eterna round: R97, puzzle: Exclusion 4)	–	–	–	523	146	–
ACAGCAUAGUUAGGAUAUUGCCGACACUGUGUGUUCCUACACAUGAGGAUCACCCAUGUGAAGCGCGAGAAGGAACUAACUGAA [Eternabot solution 8] (Eterna round: R96, puzzle: Exclusion NG 2)	–	–	–	430	348	179
ACAGGUGCAGGAUAUACAUGAGGAUCACCCAUGUAGAUCAACCAGCGAUAGCUGGAAUGUAGAAGGGCACCUGU [E3/5-D1] (Eterna round: R97, puzzle: Exclusion 3)	–	–	–	94.4	18.5	–
ACAUGAGGAUCACCCAUGUAAACAUAAUGGCUGAUGUAGAGUCAGGAUAUGCGUGGCUAACAAUCGCAGAAGGGACAAGACUGG [Deportation 30 - Jieux - Exclusion NG 3] (Eterna round: R96, puzzle: Exclusion NG 3)	–	–	–	22.2	25	23.1
ACAUGAGGAUCACCCAUGUAAACAUAAUGGCUGAUGUAGAGUCAGGAUAUGUGUGGCUAACAAUCGCAGAAGGGACAAGACUGG [Deportation 31 - Jieux - Exclusion NG 3] (Eterna round: R96, puzzle: Exclusion NG 3)	–	–	–	23.5	31.8	19.2
ACAUGAGGAUCACCCAUGUAAUGAAGGGUACUAUAUUAAACGUAGGAUAUCGAUGUAAGUUUGUACGAGAAGGACGAUUGCCUU [JR_ExcNG3_Sub052] (Eterna round: R96, puzzle: Exclusion NG 3)	–	–	–	48.2	84.1	39.5
ACAUGAGGAUCACCCAUGUAAUGAUGGGUACUAUAUUAUUCGUAGGAUAUCGUUGUUAGUUUGUGCGAGAAGGACGUUUGCCUU [JR_ExcNG3_Sub056] (Eterna round: R96, puzzle: Exclusion NG 3)	–	–	–	994	698	667
ACAUGAGGAUCACCCAUGUACACGUAAUGGCUCAUGUAGAGUGAGGAUAUGUGAGACGAACGAGAACAGAAGGCACAAGACAGG [Deportation 9 - Jieux - Exclusion NG 3] (Eterna round: R96, puzzle: Exclusion NG 3)	–	–	–	29.1	35.9	30.1
